1 substance from patent publication US20100173324A1 can be followed below.

This experiment deals with human CD27 expressed on CHO/DG44 cells (normal O-linked sugar chain) (human) (UniProt P26842). The experiment is described as follows: flow cytometry on CD27/DG44-4 cells. For orientation: In flow cytometry, cells or beads pass a laser one at a time.

For orientation: EC50 (read off the curve) means the concentration that produces a half-maximal response. Low readings indicate higher potency in that assay, high ones lower potency in that assay.

UniProt P26842, sequence (P26842 20-260 H233R limits assumed): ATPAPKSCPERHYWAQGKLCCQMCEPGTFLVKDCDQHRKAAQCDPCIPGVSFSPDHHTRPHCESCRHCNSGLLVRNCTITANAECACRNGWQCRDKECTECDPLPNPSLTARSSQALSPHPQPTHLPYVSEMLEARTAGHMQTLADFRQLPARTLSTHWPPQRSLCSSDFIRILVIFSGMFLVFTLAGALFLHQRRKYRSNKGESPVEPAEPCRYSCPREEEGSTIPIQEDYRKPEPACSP

Substance Anti-CD27 Antibody (O323) returned an EC50 (read off the curve) of 0.2 µg/mL.
